Tested on: BMS human breast cancer cells
Assay: Tumor cell adhesion under stationary conditions
Format: cell-based
Conditions: 3 μM scFv
Protocol: FIGS. 3A, 3B, 3C, 3D, 3E. scFv Bc-12 and Bc-15 inhibit αvβ3 mediated adhesive breast cancer cell functions. (A) Adhesion of BMS human breast cancer cells to fibrinogen (Fg), vitronectin (VN) or type I collagen (Col I) in the absence or presence of 3 μM Bc-12, Bc-15 or their RGE mutants Mut-12, Mut-15, compared to 200 μM GRGDSPK peptide (SEQ ID NO: 11). Protein coating concentrations: 10 μg/ml (VN, Col I) or 20 μg/ml (Fg). Adhesion time: 30 min at 37° C. (B) Effect of scFvs on haptotactic BMS cell migration toward a fibrinogen substrate (16 hrs at 37° C. in transwell chambers with or without 2 μM Bc-12, Bc-15 or their RGE mutants Mut-12 or Mut-15, compared to 200 μM GRGDSPK peptide) (SEQ ID NO: 11). (C) Effect of scFvs on breast cancer cell arrest during blood flow. Metastatic BMS cells, labeled with hydroethidine, were suspended in human blood (anticoagulated with 50 nM PPACK) and perfused over a collagen I matrix at a venous wall shear rate of 50 s^−1. Under these conditions, breast cancer cells arrest by αvβ3 mediated binding to adherent, thrombus forming platelets. Tumor cell adhesion was quantified by image acquisition at 30 predefined positions during blood flow. Left: representative images of platelet signal (thrombi, green fluorescence) and tumor cell signal (red fluorescence) at identical x,y positions. Right: Number of arrested tumor cells in the presence of 3 μM non-function blocking anti αv scFv Bc-20 or function blocking anti αvβ3 scFvs Bc-12 or Bc-15. (D) scFv Bc-15 is internalized by human breast cancer cells and reduces cell proliferation. Left: confocal images of BMS cells incubated for 4 hrs with FITC-Bc-15 at 4° C. (binding) versus 37° C. (allowing internalization). Right: Phase contrast images of BMS cell cultures 4 days after seeding in the presence of 2 μM RGE containing scFv Mut-15, or RGD containing Bc-15. (E) Effect of scFv Bc-12 on the viability of matrix deprived BMS breast cancer cells in ultra-low-adhesion plates in the presence or absence of 3.7 μM scFv, or 14.36 μM camptothecin as apoptosis inducing control. Measurement of apoptosis was based on cytoplasmic histone-associated DNA fragments after 20 hrs.
Cell adhesion and migration. Tumor cell adhesion under stationary conditions was analyzed as detailed earlier (19). Adhesion buffer was Hanks balanced salt solution (HBSS) pH 7.4, 0.5% BSA, 1 mM MgCl2, 0.2 mM MnCl2. For inhibition, cells were incubated for 5 min at RT either with 3 μM scFv or 200 μM GRGDSPK (SEQ ID NO: 11) peptide, then plated in the presence of inhibitor and allowed to attach for 30 min at 37° C. Haptotactic tumor cell migration toward fibrinogen was analyzed in transwell chambers as detailed earlier. Rolli, M., et al., Proc. Natl. Acad. Sci. U.S.A 100: 9482-9487, 2003. […]

B1: Bc-12: patient derived human scFv antibody against activated αvβ3 with RGD motif in CDR-H3; cDNA ATCC PTA-6303 (protein)
scFv: MAQVQLVQSGAEVKKPGASVKVSCKASGYTFSNYGITWVRQAPGQGLEWMGWINNGNTHYAQKFQGRVTMTTDTSTSTAYMELRSLRSDDTAVYYCARDPRGDDEPYWGQGTLVTVSSGGGGSGGGGSGGGGSEIVLTQSPLSLPVTLGQPASISCRSSQNLVYSDGNTYLSWFQQRPGQSPRRLIYKVSNRDSGVPDRFSGSGSGTDFTLKISRVEAEDIGVYYCMQGTHWPPRTFGQGTKVEIKRGLGGLVDYKDDDDK
- adhesion to collagen type I: no effect
- attachment to vitronectin: inhibited by Bc-12 and Bc-15, but to a lesser degree
- adhesion to immobilized fibrinogen (30 min at 37° C.): efficiently inhibited

Reference: patent US7271245B2, “Methods and compositions for inhibition of metastasis” (The Scripps Research Institute, priority 2004, dated 2007)
